Data: patent US20200297842A1 (published 2020)
Values belong to the molecule of their own block, whether it stands above or below them.

Columns and labels:
[1] = molecular target: T1, human SIRPγ expressed on cells (human, UniProt Q9P1W8 29-387); assay: flow cytometry on naive human CD3 T cells expressing SIRPγ
T1 construct: Endogenous SIRPγ on Jurkat T-ALL cells and on human CD3+ T cells; also called SIRPγ expressing Jurkat cells; Human T Cells Expressing SIRPγ
Method: (§1) Human CD3 T cells, isolated from peripheral blood mononuclear cells (Astarte Biologics) were incubated in 96-well V-bottom plates at 2.5 \ 10⁵ cells/well for 1 h at 37° C., 5% CO₂ with serial dilutions of SIRP mAbs in binding buffer containing 1 mM EDTA (Sigma Aldrich), 1% FBS (Biowest) in PBS (Corning). The cells were then washed and stained for 45 min under the same conditions with donkey anti-mouse IgG fluorescein isothiocyanate (FITC)-linked secondary antibody (Jackson ImmunoResearch Laboratories). The cells were subsequently stained with anti-CD3 conjugated to 3-carboxy-6,8-difluoro-7-hydroxycoumarin (Pacific Blue) fluorophore (BioLegend) for 30 min on ice, washed and analyzed by flow cytometry (Attune, Life Technologies). Binding was assessed as the median FITC fluorescence intensity of CD3⁺ cells, subtracted from CD3⁺ cells stained with the secondary antibody only. All SIRP antibodies were generated in-house except for LSB2.20 (BioLegend). For activated T cells, prior to the binding assay CD3 T cells were activated for 72 h in a 96-well flat-bottom plate coated with 10 μg/ml anti-CD3 (clone UCHT1; BioLegend), at 1×10⁵ cells/well in the presence of 0.5 μg/ml anti-CD28 (clone CD28.2; BioLegend).

[2] = molecular target: T1, human SIRPγ expressed on cells; assay: flow cytometry on activated human CD3 T cells expressing SIRPγ
Method: as §1

[3] = molecular target: T1, human SIRPγ expressed on cells; assay: flow cytometry on naive human CD3 T cells expressing SIRPγ (second column)
Method: as §1

[4] = molecular target: T2, Fc tagged human SIRPα (ACRO # SIG-H5251, genotype variant 1) (human, UniProt P78324 31-370, limits assumed); assay: ELISA, plate-coated Fc tagged human SIRPα; apparent Kd
T2 construct: Bought protein; also called Fc tagged human SIRP alpha; recombinant human SIRPα; not shown: Fc tag
Method: The binding of anti-SIRP monoclonal antibodies (mAbs) of the present disclosure to SIRP alpha (SIRPα) was determined by solid phase ELISA using an Fc tagged human SIRP alpha. Binding by soluble anti-SIRP antibodies was measured in vitro.
Fc tagged human SIRPα (ACRO # SIG-H5251, genotype variant 1) is adsorbed to high-binding microtiter plates at a concentration of 1 μg/ml diluted in phosphate buffered saline (PBS) overnight at 4° C. The coating solution is removed, the wells are washed and then blocked with 75% casein in PBS containing 0.5% Tween 20 (PBST) for 60 minutes at room temperature while shaking. Blocking solution is removed, the wells are washed and incubated for 60 minutes at room temperature while shaking with either murine or human anti-SIRP mAbs diluted in PBST at a starting concentration of 30 μg/ml and reducing the concentration in 3-fold serial dilutions. Wells are washed three times with PBST and incubated for 60 minutes at room temperature while shaking with an HRP-labeled donkey anti-mouse or anti-human secondary antibody (Jackson ImmunoResearch Laboratories) diluted 1:10,000 in PBST. The wells are washed and then incubated with peroxidase substrate and the absorbance at 450 nm measured. The apparent affinities were calculated using a non-linear fit model (GraphPad Prism).

[5] = molecular target: T3, Fc tagged human SIRPγ (ACRO # SIG-H5253) (human, UniProt Q9P1W8 29-360); assay: ELISA, plate-coated Fc tagged human SIRPγ; apparent Kd
T3 construct: Bought protein; it includes the transmembrane and cytoplasmic part, which a soluble Fc fusion would not carry; also called Fc tagged human SIRP gamma; recombinant human SIRP gamma; not shown: Fc tag
Method: The binding of anti-SIRP antibodies of the present disclosure to SIRP gamma (SIRPγ) was determined by ELISA using an Fc tagged human SIRPγ. Binding by soluble anti-SIRP antibodies was measured in vitro.
Fc tagged human SIRPγ (ACRO # SIG-H5253) is adsorbed to high-binding microtiter plates at a concentration of 1 μg/ml in phosphate buffered saline (PBS) overnight at 4° C. The coating solution is removed, the wells are washed and then blocked with 75% casein in PBS containing 0.5% Tween 20 (PBST) for 60 minutes at room temperature while shaking. Blocking solution is removed, the wells are washed and incubated for 60 minutes at room temperature while shaking with anti-SIRP mAbs diluted in PBST at a starting concentration of 30 μg/ml and reducing the concentration in 3-fold serial dilutions. Wells are washed three times with PBST and incubated for 60 minutes at room temperature while shaking with an HRP labeled donkey anti-mouse or anti-human secondary antibody (Jackson ImmonResearch Laboratories) diluted 1:10,000 in PBST. The wells are washed and then incubated with peroxidase substrate and the absorbance at 450 nm determined. The apparent affinities were calculated using a non-linear fit model (GraphPad Prism).

[6] = molecular target: T4, human SIRPα expressed on cells (human, UniProt P78324 31-504); assay: flow cytometry on human monocyte-derived dendritic cells; apparent Kd
T4 construct: whole, on cells; Endogenous SIRPα of THP-1 cells and of donor-derived macrophages and dendritic cells; also called SIRPα expressing THP-1 cells; cell-expressed SIRPα on dendritic cells and/or macrophages
Method: (§2) Human CD14⁺ monocytes, isolated from peripheral blood mononuclear cells (Astarte Biologics) were differentiated in vitro for seven days into macrophages or dendritic cells. For macrophage differentiation, monocytes were incubated in AIM-V media (Life Technologies) supplemented with 50 ng/ml M-CSF (Biolegend) for seven days. For dendritic cell differentiation, monocytes were incubated in AIM-V media (Life Technologies) in the presence of 10% human AB serum (Valley Biomedical), 200 ng/ml GM-CSF (Biolegend) and 50 ng/ml IL-4 (Biolegend). The cells were incubated for 1 h at 37° C., 5% CO₂ with serial dilutions of SIRP mAbs in binding buffer containing 1 mM EDTA (Sigma Aldrich) and 1% FBS (Biowest) in PBS (Corning). The cells were then washed and stained for 45 min under the same conditions with donkey anti-mouse IgG fluorescein isothiocyanate (FITC)-linked secondary antibody (Jackson ImmunoResearch Laboratories). The cells were subsequently stained with anti-CD14 or anti-CD11c conjugated to Alexa Fluor 647 fluorophore (Life Technologies and Biolegend, respectively) for 30 min on ice, washed and analyzed by flow cytometry (Attune, Life Technologies). Binding was assessed as the median FITC fluorescence intensity of CD14⁺ or CD11c⁺ cells, subtracted from cells stained with the secondary antibody only.

[7] = molecular target: T3, Fc tagged human SIRPγ (ACRO # SIG-H5253); assay: blocking ELISA: mAb with human SIRPγ (ACRO # SIG-H5253) on plate-coated HIS tagged human CD47
Method: HIS tagged human CD47 (ACRO # CD7-H5227) is adsorbed to high-binding microtiter plates at a concentration of 2 μg/ml diluted in PBS overnight at 4° C. The coating solution is removed, the wells are washed and then blocked with 75% casein in PBS containing 0.5% Tween 20 (PBST) for 60 minutes at room temperature while shaking. Blocking solution is removed, the wells are washed and incubated for 60 minutes at room temperature while shaking with anti-SIRP mAbs diluted in PBST at a starting concentration of 30 μg/ml and reducing the concentration in 3 fold serial dilutions and 0.5 μg/ml of human SIRPγ (ACRO # SIG-H5253). Wells are washed three times with PBST and incubated for 60 minutes at room temperature while shaking with an HRP labeled donkey anti-mouse or anti-human secondary antibody (Jackson ImmunoResearch Laboratories) diluted 1:20,000 in PBST. The wells are washed and then incubated with peroxidase substrate and the absorbance at 450 nm determined. The IC₅₀ was calculated using a non-linear fit model (GraphPad Prism).

[8] = molecular target: HIS tagged human SIRPα (ACRO # SIG-H5225) (human) (UniProt P78324); assay: blocking ELISA: mAb on plate-coated HIS tagged human SIRPα, then Fc tagged human CD47
[9] = molecular target: T4, human SIRPα expressed on cells; assay: flow cytometry on human monocyte-derived macrophages; apparent Kd
Method: as §2

T2 sequence (P78324 31-370 limits assumed, change not shown, form in doubt): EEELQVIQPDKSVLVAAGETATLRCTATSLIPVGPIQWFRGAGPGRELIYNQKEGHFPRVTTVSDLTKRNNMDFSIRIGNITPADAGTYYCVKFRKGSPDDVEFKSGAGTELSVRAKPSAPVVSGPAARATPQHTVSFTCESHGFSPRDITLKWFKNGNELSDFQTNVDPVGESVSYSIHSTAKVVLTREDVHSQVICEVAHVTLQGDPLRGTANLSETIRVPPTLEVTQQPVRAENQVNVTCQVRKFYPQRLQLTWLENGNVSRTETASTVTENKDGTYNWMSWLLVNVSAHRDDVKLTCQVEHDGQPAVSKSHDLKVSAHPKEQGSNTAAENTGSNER
Chain of HIS tagged human SIRPα (ACRO # SIG-H5225) (human) (P78324 31-370): as the sequence (P78324 31-370 limits assumed, change not shown, form in doubt) above
T3 sequence (Q9P1W8 29-360 limits assumed): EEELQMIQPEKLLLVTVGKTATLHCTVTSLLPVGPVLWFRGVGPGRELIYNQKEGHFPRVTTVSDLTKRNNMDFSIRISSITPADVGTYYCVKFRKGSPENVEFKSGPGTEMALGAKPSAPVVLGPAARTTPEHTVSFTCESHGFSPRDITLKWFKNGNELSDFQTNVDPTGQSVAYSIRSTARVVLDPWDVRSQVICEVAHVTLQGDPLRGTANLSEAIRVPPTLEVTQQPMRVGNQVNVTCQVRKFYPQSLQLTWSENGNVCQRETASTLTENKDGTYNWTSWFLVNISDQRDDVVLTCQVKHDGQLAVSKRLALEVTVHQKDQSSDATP
T1 sequence (Q9P1W8 29-387): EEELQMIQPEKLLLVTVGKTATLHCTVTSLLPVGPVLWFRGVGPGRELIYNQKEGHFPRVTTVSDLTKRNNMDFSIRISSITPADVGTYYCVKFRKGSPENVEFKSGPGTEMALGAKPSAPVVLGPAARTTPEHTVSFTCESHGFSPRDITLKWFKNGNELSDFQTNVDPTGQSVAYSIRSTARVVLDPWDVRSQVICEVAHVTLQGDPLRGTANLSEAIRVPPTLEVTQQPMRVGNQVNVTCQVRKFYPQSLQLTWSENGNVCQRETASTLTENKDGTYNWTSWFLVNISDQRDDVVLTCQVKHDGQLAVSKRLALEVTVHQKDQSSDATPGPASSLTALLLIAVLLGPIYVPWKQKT
T4 sequence (P78324 31-504): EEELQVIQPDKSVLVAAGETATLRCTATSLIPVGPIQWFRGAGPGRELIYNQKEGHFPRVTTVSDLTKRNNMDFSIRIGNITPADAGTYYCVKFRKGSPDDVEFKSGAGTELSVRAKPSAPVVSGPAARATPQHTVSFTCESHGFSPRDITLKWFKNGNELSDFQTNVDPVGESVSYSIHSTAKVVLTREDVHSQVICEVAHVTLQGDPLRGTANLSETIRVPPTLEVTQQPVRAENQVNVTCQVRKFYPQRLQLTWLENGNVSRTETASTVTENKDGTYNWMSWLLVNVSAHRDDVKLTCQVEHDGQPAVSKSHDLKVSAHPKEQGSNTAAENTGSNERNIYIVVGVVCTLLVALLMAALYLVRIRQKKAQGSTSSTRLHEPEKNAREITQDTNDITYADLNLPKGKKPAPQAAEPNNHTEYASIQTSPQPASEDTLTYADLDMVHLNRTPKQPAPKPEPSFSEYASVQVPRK

Kd [1]: 0.75 nM
Kd [2]: 0.95 nM
Kd [3]: 1.26 nM
Molecule: LSB2.20 (antibody)

Kd [4]: 0.065 nM
Kd [5]: 0.126 nM
Kd [6]: 0.77 nM
IC50 [7]: 0.163 nM
B1: SIRP5 (antibody, V domains shown)
VH: QVQLQQSAAELARPGASVKMSCKASGYTFTSYTMHWVKQRPGQGLEWIGYINPTIGYTEYNQKFKDKTTLTADKSSSTAYMQLSSLTSEDSAVYYCVRLVITSVLGRAMDYWGQGTSVTVSS
VL: QIVLTQSPALMSASPGEKVTMTCSASSSVSYMYWFQQKPRSSPKPWIYLTSNLASGVPARFSGSGSGTSYSLTISSMEAEDAATYYCQQWSGNPFTFGSGTKLEIK

Kd [4]: 0.182 nM
Kd [5]: 0.734 nM
IC50 [8]: 3 nM
IC50 [7]: 3.5 nM
B2: SIRP2 (antibody, mouse IgG1, kappa, V domains shown)
VH: EVKLVESGGGLVQPGGSLKLSCAASGFSFSGCTMSWIRQTPERRLEWVAYISNGGDITYYPDTVKGRFTISRDNAKNSLYLQMSSLKSEDTAMYYCARLDGYYYAMDFWGQGTSVTVSS
VL: DILLTQSPAILSVSPGERVSFSCRASQSIGTSIHWYQQRTNGSPRLLIKYGSESISGIPSRFSGSGSGTDFTLSINSVESEDIADYYCQQSNTWPLTFGDGTKLELKR
notes: Hybridoma-derived mouse mAb

Kd [4]: 0.161 nM
Kd [5]: 0.274 nM
Kd [9]: 0.0207 nM
Kd [6]: 0.05 nM
IC50 [8]: 0.71 nM
IC50 [7]: 0.44 nM
B3: SIRP4 (antibody, V domains shown)
VH: EVQLQQSGPDLVKPGASVKISCKASGYSFTDYFLNWVKQSHGKSLEWIGRINPYNGDSFINQNFRDKATLTVDKSSTTAHMDLLSLTSEDSAIYYCGRGGYDGYFIAYFDYWGQGSLVTVSA
VL: DIKLTQSQSSMYSSLGQRVTITCKASQDINSHLSWFQEKPGKSPKTLIYRANRLADGVPSRFSGSGSGQDYFLTISSLEYEDVGIYYCLQYDEFPYTFGGGTKLEIK
notes: detected with anti-mouse secondary antibody in the cell assays

Kd [1]: 8.41 nM
Kd [9]: 0.0373 nM
Kd [6]: 0.0412 nM
B4: OSE-18D5 (antibody, from another filing, V domains shown)
VH: QVQLQQPGAELVRPGSSVKLSCKASGYTFTSYWVHWVKQRPIQGLEWIGNIDPSDSDTHYNQKFKDKASLTVDKSSSTAYMQLSSLTFEDSAVYYCVRGGTGTMAWFAYWGQGTLVTVSA
VL: DVVMTQTPLSLPVSLGDQASISCRSSQSLVHSYGNTYLYWYLQKPGQSPKLLIYRVSNRFSGVPDRFSGSGSGTDFTLKISRVEAEDLGVYFCFQGTHVPYTFGSGTKLEIK

Kd [4]: 0.197 nM
Kd [5]: 0.099 nM
Kd [1]: 0.0839 nM
IC50 [8]: 1.1 nM
IC50 [7]: 0.63 nM
B5: SIRP7 (antibody, V domains shown)
VH: EVQLQQSGPELVKPGASVKMSCRASGYTFSTYVMHWIKHRPGQGLEWIGYINPNNDGPNYNEKFKGKATLTSDISSSTAYMELSSLTSEDSAVYFCSRWDSYNSAAGFAYWGHGTLVTVSA
VL: EIVLTQSPTTMAASPGEKITIICSASSSISSNFLHWYQQKPGFSPRFLIYRTSILASGVPTRFSGSGSGTSYSLTIDTMEAEDVATYYCQQGSGLPLTFGSGTKLEIK

Kd [4]: 0.583 nM
Kd [5]: 0.51 nM
Kd [2]: 0.263 nM
Kd [9]: 0.0937 nM
Kd [3]: 1.41 nM
B6: SIRP9 (antibody, V domains shown)
VH: EVQLQESGAELVRPGASVKLSCKALGYTFTDYEIHWVKETPVYGLEWIGDIHPGSGGTANNQKFKGKATLTADKSSNTAYMELSSLTSEDSAVYYCTRAVSGYYAMDYWGQGTSVTVSS
VL: DIQMTQSSSSFSGSLGDRLTINCKASEDIYDRVAWYQQKPGNAPRLLISGTASLETGVLSRFSGSGSGKDYTLSINGLQAEDVATYYCQQYWTTPWTFGGGTKLEIK
notes: as for B3

Kd [4]: 0.289 nM
Kd [5]: 0.17 nM
Kd [1]: 0.0807 nM
Kd [6]: 0.00347 nM
IC50 [8]: 2.7 nM
IC50 [7]: 0.96 nM
B7: SIRP3 (antibody, mouse IgG1, kappa, V domains shown)
VH: EVQLQQSGPEVVKPGASVKMSCKASGYTFTSYVMHWVKQKPGQGLEWIGYINPYNDGPKYNEKFKGKATLTSDKSSSTAYMELSSLTSEDSAVYFCARWDYFNSASGFAFWGQGTLVTVSA
VL: EIVLTQSPTTMAASPGEKITIICSASSIIGSDFLHWYQQRPGFSPKFLIYRTSILASGVPTRFTGSGSGTSYSLTIGTMEAEDVATYYCQQGSGLPLTFGSGTKLEMKR
notes: Hybridoma-derived mouse mAb

Kd [1]: 0.00404 nM
Kd [2]: 0.00622 nM
Kd [6]: 0.0234 nM
Kd [3]: 0.00159 nM
B8: KWAR-23 (antibody, V domains shown)
VH: EVQLQQSGAELVKPGASVKLSCTASGFNIKDYYIHWVQQRTEQGLEWIGRIDPEDGETKYAPKFQDKATITADTSSNTAYLHLSSLTSEDTAVYYCARWGAYWGQGTLVTVSS
VL: QIVLTQSPAIMSASPGEKVTLTCSASSSVSSSYLYWYQQKPGSSPKLWIYSTSNLASGVPARFSGSGSGTSYSLTISSMEAEDAASYFCHQWSSYPRTFGAGTKLELK
